Measured values taken from IntAct's records for PubMed 31515488.

B1: Cyclin-dependent kinase 4 inhibitor D (Homo sapiens), P55273 (parent)
chain: MLLEEVRAGDRLSGAAARGDVQEVRRLLHRELVHPDALNRFGKTALQVMMFGSTAIALELLKQGASPNVQDTSGTSPVHDAARTGFLDTLKVLVEHGADVNVPDGTGALPIHLAVQEGHTAVVSFLAAESDLHRRDARGLTPLELALQRGAQDLVDILQGHMVAPL
B2: Isoform Long of Autophagy protein 5 (Homo sapiens), Q9H1Y0-1 (parent)
chain: MTDDKDVLRDVWFGRIPTCFTLYQDEITEREAEPYYLLLPRVSYLTLVTDKVKKHFQKVMRQEDISEIWFEYEGTPLKWHYPIGLLFDLLASSSALPWNITVHFKSFPEKDLLHCPSKDAIEAHFMSCMKEADALKHKSQVINEMQKKDHKQLWMGLQNDRFDQFWAINRKLMEYPAEENGFRYIPFRIYQTTTERPFIQKLFRPVAADGQLHTLGDLLKEVCPSAIDPEDGEKKNQVMIHGIEPMLETPLQWLSEHLSYPDNFLHISIIPQPTD
B3: Segment polarity protein dishevelled homolog DVL-2 (Homo sapiens), O14641 (parent)
chain: MAGSSTGGGGVGETKVIYHLDEEETPYLVKIPVPAERITLGDFKSVLQRPAGAKYFFKSMDQDFGVVKEEISDDNARLPCFNGRVVSWLVSSDNPQPEMAPPVHEPRAELAPPAPPLPPLPPERTSGIGDSRPPSFHPNVSSSHENLEPETETESVVSLRRERPRRRDSSEHGAGGHRTGGPSRLERHLAGYESSSTLMTSELESTSLGDSDEEDTMSRFSSSTEQSSASRLLKRHRRRRKQRPPRLERTSSFSSVTDSTMSLNIITVTLNMEKYNFLGISIVGQSNERGDGGIYIGSIMKGGAVAADGRIEPGDMLLQVNDMNFENMSNDDAVRVLRDIVHKPGPIVLTVAKCWDPSPQAYFTLPRNEPIQPIDPAAWVSHSAALTGTFPAYPGSSSMSTITSGSSLPDGCEGRGLSVHTDMASVTKAMAAPESGLEVRDRMWLKITIPNAFLGSDVVDWLYHHVEGFPERREARKYASGLLKAGLIRHTVNKITFSEQCYYVFGDLSGGCESYLVNLSLNDNDGSSGASDQDTLAPLPGATPWPLLPTFSYQYPAPHPYSPQPPPYHELSSYTYGGGSASSQHSEGSRSSGSTRSDGGAGRTGRPEERAPESKSGSGSESEPSSRGGSLRRGGEASGTSDGGPPPSRGSTGGAPNLRAHPGLHPYGPPPGMALPYNPMMVVMMPPPPPPVPPAVQPPGAPPVRDLGSVPPELTASRQSFHMAMGNPSEFFVDVM
partner: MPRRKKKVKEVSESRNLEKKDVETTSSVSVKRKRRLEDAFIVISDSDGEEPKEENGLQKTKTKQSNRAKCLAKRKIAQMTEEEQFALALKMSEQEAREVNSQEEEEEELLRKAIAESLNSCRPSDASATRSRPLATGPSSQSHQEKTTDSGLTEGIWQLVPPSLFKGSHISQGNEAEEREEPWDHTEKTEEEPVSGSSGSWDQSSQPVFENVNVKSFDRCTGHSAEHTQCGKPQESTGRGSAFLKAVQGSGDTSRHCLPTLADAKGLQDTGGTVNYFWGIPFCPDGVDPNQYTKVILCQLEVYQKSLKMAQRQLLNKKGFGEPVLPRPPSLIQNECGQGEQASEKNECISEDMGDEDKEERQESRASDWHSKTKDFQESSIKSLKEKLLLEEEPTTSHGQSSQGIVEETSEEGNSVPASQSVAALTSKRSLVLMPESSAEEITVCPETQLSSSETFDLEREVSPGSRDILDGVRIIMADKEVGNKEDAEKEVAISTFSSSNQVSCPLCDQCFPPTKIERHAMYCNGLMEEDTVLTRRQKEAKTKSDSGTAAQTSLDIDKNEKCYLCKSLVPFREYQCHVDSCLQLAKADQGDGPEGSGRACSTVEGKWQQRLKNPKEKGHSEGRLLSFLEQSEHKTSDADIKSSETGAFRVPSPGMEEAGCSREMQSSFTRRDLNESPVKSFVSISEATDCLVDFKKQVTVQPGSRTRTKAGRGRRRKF
B4: Adenylate kinase 8 (Homo sapiens), Q96MA6 (parent)
chain: MDATIAPHRIPPEMPQYGEENHIFELMQNMLEQLLIHQPEDPIPFMIQHLHRDNDNVPRIVILGPPASGKTTIAMWLCKHLNSSLLTLENLILNEFSYTATEARRLYLQRKTVPSALLVQLIQERLAEEDCIKQGWILDGIPETREQALRIQTLGITPRHVIVLSAPDTVLIERNLGKRIDPQTGEIYHTTFDWPPESEIQNRLMVPEDISELETAQKLLEYHRNIVRVIPSYPKILKVISADQPCVDVFYQALTYVQSNHRTNAPFTPRVLLLGPVGSGKSLQAALLAQKYRLVNVCCGQLLKEAVADRTTFGELIQPFFEKEMAVPDSLLMKVLSQRLDQQDCIQKGWVLHGVPRDLDQAHLLNRLGYNPNRVFFLNVPFDSIMERLTLRRIDPVTGERYHLMYKPPPTMEIQARLLQNPKDAEEQVKLKMDLFYRNSADLEQLYGSAITLNGDQDPYTVFEYIESGIINPLPKKIP

Variants of: B1
Details: with nr4a1_human NR4A1, P22736

| effect of a mutation on the interaction | Variant |
| --- | --- |
| disrupting interaction strength | P142S |
| with no effect | A121S |

Variants of: B1
Details: with nr4a2_human NR4A2, P43354

| effect of a mutation on the interaction | Variant |
| --- | --- |
| with no effect | P142S |
| with no effect | A121S |

Variants of: B1
Details: with cdk6_human CDK6, Q00534

| effect of a mutation on the interaction | Variant |
| --- | --- |
| with no effect | P142S |
| with no effect | A121S |
| with no effect | P67L |
| with no effect | V94M |

Variants of: B1
Details: with cdk4_human CDK4, P11802

| effect of a mutation on the interaction | Variant |
| --- | --- |
| with no effect | A121S |

Variants of: B2
Details: with tera_human VCP

| effect of a mutation on the interaction | Variant |
| --- | --- |
| disrupting interaction strength | K58M |

Variants of: B2
Details: with keap1_human KEAP1, Q14145

| effect of a mutation on the interaction | Variant |
| --- | --- |
| with no effect | K58M |

Variants of: B3
Details: with uimc1_human UIMC1, Q96RL1

| effect of a mutation on the interaction | Variant |
| --- | --- |
| with no effect | R415Q |

Variants of: B4
Details: with mcm7_human MCM7, P33993

| effect of a mutation on the interaction | Variant |
| --- | --- |
| with no effect | T169K |
| with no effect | V227I |
